Measured values published in article PMC10881392.

Assays:
[1] = molecular target: HIV-1 capsid (CA) hexamer CA (Human immunodeficiency virus 1) (UniProt O93182); conditions: cited from earlier work
[2] = molecular target: HIV-1 capsid (CA) unassembled CA (Human immunodeficiency virus 1) (UniProt O93182); conditions: cited from earlier work
[3] = molecular target: HIV-1 capsid (CA) CA (Human immunodeficiency virus 1) (UniProt O93182); conditions: cited from earlier work
[4] = molecular target: unstructured FG domain of Nup98 (residues 1-499), His-tagged, as phase-separated condensates (human) (UniProt P52948)
CypA, GFP fusion = CypA, GFP fusion (UniProt P62937); assay: FFS; conditions: parent: est. 1.0, read off a plot
GFP-Nup62 (full-length) = GFP-Nup62 (full-length) (UniProt P37198); assay: FFS; conditions: n = 10 scans; parent: est. 1.0; read off a plot
[5] = molecular target: GFP-Nup98 (1-499), FG-repeat domain (UniProt P52948); assay: FFS; conditions: n = 10 scans; parent: est. 1.0; read off a plot
[6] = molecular target: Nup153 (1407-1423) peptide (UniProt P49790); assay: FFS; conditions: parent: est. 1.0, read off a plot
Sequence of Nup153 (1407-1423) peptide (P49790 whole entry, looked up, tested part not stated): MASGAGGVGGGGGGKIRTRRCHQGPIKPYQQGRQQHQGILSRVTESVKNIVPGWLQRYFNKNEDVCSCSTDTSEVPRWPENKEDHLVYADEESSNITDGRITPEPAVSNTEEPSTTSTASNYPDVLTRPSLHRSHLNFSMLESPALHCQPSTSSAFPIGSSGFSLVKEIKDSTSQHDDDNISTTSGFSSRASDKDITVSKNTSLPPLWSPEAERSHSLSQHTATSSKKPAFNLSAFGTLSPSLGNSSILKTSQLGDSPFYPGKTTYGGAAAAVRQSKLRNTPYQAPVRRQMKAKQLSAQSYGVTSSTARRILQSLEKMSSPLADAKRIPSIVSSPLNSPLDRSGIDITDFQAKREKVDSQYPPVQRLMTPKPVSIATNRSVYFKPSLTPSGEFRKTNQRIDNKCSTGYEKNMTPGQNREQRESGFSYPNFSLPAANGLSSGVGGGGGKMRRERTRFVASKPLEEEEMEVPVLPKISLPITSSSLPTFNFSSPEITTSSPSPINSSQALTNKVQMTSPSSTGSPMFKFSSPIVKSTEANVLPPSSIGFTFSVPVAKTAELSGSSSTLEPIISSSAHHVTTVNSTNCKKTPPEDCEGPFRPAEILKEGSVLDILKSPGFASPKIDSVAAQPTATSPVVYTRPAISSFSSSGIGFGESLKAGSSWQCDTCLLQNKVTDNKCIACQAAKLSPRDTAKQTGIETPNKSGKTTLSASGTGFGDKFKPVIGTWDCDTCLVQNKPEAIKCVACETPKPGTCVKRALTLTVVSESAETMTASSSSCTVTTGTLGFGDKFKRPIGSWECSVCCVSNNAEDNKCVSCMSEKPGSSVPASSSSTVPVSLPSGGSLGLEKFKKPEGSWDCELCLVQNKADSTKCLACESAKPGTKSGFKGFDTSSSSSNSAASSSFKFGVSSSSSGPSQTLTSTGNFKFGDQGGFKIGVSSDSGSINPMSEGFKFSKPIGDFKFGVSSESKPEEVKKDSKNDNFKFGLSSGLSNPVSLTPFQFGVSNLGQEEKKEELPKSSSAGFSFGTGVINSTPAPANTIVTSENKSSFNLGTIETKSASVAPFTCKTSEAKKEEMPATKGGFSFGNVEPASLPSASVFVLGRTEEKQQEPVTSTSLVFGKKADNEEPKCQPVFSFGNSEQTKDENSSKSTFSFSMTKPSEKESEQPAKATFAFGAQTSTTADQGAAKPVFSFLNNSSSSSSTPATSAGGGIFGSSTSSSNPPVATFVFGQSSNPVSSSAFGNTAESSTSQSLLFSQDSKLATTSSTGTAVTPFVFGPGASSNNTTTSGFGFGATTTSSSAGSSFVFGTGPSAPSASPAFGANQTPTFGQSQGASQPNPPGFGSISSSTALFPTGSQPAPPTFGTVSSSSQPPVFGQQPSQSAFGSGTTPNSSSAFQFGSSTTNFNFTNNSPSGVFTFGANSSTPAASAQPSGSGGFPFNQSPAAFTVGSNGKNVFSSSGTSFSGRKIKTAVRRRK

[7] = molecular target: CPSF6 (313-327) peptide, Q16630-2; assay: FFS; conditions: parent: est. 1.0, read off a plot
Sequence of CPSF6 (313-327) peptide, Q16630-2 (Q16630 whole entry, looked up, tested part not stated): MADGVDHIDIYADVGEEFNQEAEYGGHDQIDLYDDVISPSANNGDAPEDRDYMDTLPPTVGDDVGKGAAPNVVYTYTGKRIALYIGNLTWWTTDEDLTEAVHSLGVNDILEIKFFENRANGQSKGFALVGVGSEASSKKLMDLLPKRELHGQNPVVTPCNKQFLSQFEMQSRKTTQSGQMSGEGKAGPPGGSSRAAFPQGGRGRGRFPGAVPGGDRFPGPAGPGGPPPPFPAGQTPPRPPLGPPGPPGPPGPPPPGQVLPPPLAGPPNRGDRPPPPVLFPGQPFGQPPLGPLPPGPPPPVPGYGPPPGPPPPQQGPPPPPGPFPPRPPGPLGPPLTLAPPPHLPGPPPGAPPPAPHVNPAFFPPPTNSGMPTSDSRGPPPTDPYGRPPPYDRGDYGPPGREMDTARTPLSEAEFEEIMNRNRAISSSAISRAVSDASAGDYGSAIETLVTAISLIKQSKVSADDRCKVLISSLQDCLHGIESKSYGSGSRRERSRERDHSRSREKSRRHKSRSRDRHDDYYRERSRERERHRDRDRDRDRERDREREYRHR

GFP-Nup42 (full-length) = GFP-Nup42 (full-length) (UniProt O15504); assay: FFS; conditions: n = 10 scans; parent: est. 1.0; read off a plot
[8] = molecular target: GFP-Nup214 (1210-2090), FG-repeat domain (UniProt P35658); assay: FFS; conditions: n = 15 scans; parent: est. 1.0; read off a plot
[9] = molecular target: GFP-Pom121 (266-1249), transmembrane domain truncated (UniProt Q96HA1); assay: FFS; conditions: n = 10 scans; parent: est. 1.0; read off a plot
[10] = molecular target: Nup98 fragment 1–119 (13 FGs); assay: FFS; conditions: n = 10 scans; parent: est. 1.1; read off a plot
[11] = molecular target: Nup98 fragment 118–345 (13 FGs); assay: FFS; conditions: n = 10 scans; parent: est. 1.1; read off a plot
[12] = molecular target: Nup98 fragment 346–499 (13 FGs); assay: FFS; conditions: n = 10 scans; parent: est. 2.4; read off a plot
GFP-Nup58 (full-length) = GFP-Nup58 (full-length) (UniProt Q9BVL2); assay: FFS; conditions: n = 15 scans; parent: est. 1.0; read off a plot

Substance | ratio to parent (CypA, GFP fusion; n = 10 scans) | ratio to parent (GFP-Nup62 (full-length)) | ratio to parent [5] | ratio to parent ([6]; n = 10 scans) | ratio to parent ([7]; n = 10 scans) | ratio to parent (GFP-Nup42 (full-length)) | ratio to parent [8] | ratio to parent [9] | other results
CPSF6 313-327 (from UniProt Q16630) |  |  |  |  |  |  |  |  | Kd [1]: 50 µM; Kd [2]: 700 µM
HIV-1 capsid (CA) CA (from UniProt O93182) |  |  |  |  |  |  |  |  | Kd [3]: 40 µM
capsid-like particles (CLPs; CA A204C cross-linked assemblies labelled with Alexa Fluor 568), wild-type (complex) |  |  |  |  |  |  |  |  | median penetration depth of unlabelled CLPs into Nup98 condensates, cryo-ET [4]: 65 nm
capsid-like particles (CLPs; CA A204C cross-linked assemblies labelled with Alexa Fluor 568), wild-type A77V | 1.6 | 1.7 | 1.4 | 3.9 | 0.15 | 1.2 | 1.4 | 1.7 | 
capsid-like particles (CLPs; CA A204C cross-linked assemblies labelled with Alexa Fluor 568), wild-type N57D | 1.4 | -0.1 | 0.35 |  | 0.03 | 0.35 | 0.2 | -0.02 | ratio to parent ([6]; n = 9 scans): 0.18; response [10]: 0.19; response [11]: 0.22; response [12]: 0.2; ratio to parent (GFP-Nup58 (full-length)): -0.1
capsid-like particles (CLPs; CA A204C cross-linked assemblies labelled with Alexa Fluor 568), wild-type N74D |  |  | 1.7 | 1.4 |  | 1.8 | 1.8 | 1.9 | ratio to parent (CypA, GFP fusion; n = 8 scans): 1.3; ratio to parent ([7]; n = 8 scans): 0
